In test [1] the target is C3b_(R161W) (human) (UniProt P01024).
Test [2] deals with C3b_(R592W) (human) (UniProt P01024).
Test [3] concerns the target C3b_(R161W) (human) (UniProt P01024). Kind of test: SPR; Biacore T100, CM5 chip; C3b surface brought to 1500 RU by thioester deposition (FB and FD with Mg2+ to form convertase, then mutant or wt C3 as substrate); sMCP 0.078-5 μM flowed 90 s, 300 s dissociation; 25 °C, 20 μl/min, HBS-EP; steady-state affinity analysis. On the technique in general: In SPR one partner is held on a chip, and binding of the other changes the refractive index at the surface.

Test [4] addresses wild-type C3b (human) (UniProt P01024). Described as above.
Test [5] concerns the target C3b_(R592W) (human) (UniProt P01024). The description is as above.
In test [6] the target is C3b_(I1157T) (human, UniProt P01024 749-1663; P01024 749-1663, I1157T). The description is as above. The note with it: both partners purified.
Test [7] concerns the target C3b_(R161W) (human) (UniProt P01024). Kind of test: SPR; Biacore T100, CM5 chip; C3b immobilised (400 RU, amine coupling); FH 0.07-4.18 μM flowed 180 s, 300 s dissociation; 25 °C, 20 μl/min, HBS-EP; steady-state affinity analysis.
The target of test [8] is wild-type C3b (human) (UniProt P01024). The description is as above.
For test [9], the target named is C3b_(R592W) (human) (UniProt P01024). The description is as above.
In test [10] the target is C3b_(I1157T) (human, UniProt P01024 749-1663; P01024 749-1663, I1157T, C3b state: beta and alpha' chains disulfide-linked. Thioester (Cys1010-Gln1013) opened: hydrolysed in trypsin-generated C3b, or covalently attached to the chip via thioester for MCP SPR. Plasma glycop). The description is as above. The note with it: both partners purified.

A word on the Kd: it is a measure of binding affinity in units of concentration.

C3b_(I1157T) (human, UniProt P01024 749-1663; P01024 749-1663, I1157T), sequence (P01024 749-1663, stated change not applied, chain 1 of 2): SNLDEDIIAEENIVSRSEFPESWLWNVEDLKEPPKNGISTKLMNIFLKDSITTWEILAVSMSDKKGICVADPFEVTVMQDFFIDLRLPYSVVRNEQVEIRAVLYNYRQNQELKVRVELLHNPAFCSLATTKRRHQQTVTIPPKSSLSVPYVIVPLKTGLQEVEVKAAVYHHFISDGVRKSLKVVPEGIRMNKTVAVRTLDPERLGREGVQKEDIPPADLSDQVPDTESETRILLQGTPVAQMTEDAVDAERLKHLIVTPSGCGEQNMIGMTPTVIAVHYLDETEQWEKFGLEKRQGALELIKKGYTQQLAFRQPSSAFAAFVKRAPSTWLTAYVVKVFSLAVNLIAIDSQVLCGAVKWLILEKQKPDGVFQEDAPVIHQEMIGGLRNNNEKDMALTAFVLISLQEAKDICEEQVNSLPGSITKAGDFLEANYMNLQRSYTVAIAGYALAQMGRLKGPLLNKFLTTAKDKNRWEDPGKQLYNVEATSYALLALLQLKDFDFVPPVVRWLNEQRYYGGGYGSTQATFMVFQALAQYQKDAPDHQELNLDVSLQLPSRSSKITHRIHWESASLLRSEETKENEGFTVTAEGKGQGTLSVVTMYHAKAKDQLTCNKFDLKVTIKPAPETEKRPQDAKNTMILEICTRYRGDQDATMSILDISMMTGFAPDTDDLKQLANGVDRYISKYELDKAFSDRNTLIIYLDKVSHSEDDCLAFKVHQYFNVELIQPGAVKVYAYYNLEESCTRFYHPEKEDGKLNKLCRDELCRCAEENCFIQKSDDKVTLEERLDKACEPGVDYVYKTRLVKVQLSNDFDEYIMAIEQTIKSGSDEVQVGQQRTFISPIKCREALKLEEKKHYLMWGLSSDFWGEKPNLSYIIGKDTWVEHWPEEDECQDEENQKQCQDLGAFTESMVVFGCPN
C3b_(I1157T) (human, UniProt P01024 749-1663; P01024 749-1663, I1157T), sequence (P01024 749-1663 I1157T, chain 2 of 2): as the sequence (P01024 749-1663, stated change not applied, chain 1 of 2) above, with I409T counted along it
C3b_(I1157T) (human, UniProt P01024 749-1663; P01024 749-1663, I1157T, C3b state: beta and alpha' chains disulfide-linked. Thioester (Cys1010-Gln1013) opened: hydrolysed in trypsin-generated C3b, or covalently attached to the chip via thioester for MCP SPR. Plasma glycop), sequence (P01024 749-1663, stated change not applied, chain 1 of 2): as the sequence (P01024 749-1663, stated change not applied, chain 1 of 2) above
C3b_(I1157T) (human, UniProt P01024 749-1663; P01024 749-1663, I1157T, C3b state: beta and alpha' chains disulfide-linked. Thioester (Cys1010-Gln1013) opened: hydrolysed in trypsin-generated C3b, or covalently attached to the chip via thioester for MCP SPR. Plasma glycop), sequence (P01024 749-1663 I1157T, chain 2 of 2): as the sequence (P01024 749-1663, stated change not applied, chain 1 of 2) above, with I409T counted along it

For “soluble recombinant membrane cofactor protein (sMCP) (from UniProt P15529 35-286) (domain or fragment)”, the FI-mediated cleavage of C3b with sMCP as cofactor, purified proteins in solution, 0-10 min at 37 °C; percent of C3b cleaved after 10 min (wt almost completely cleaved) with C3b_(R161W) (human) [1] and in the test with C3b_(R592W) (human) [2] was 70% each time. Moreover, the Kd came to 930 nM in the test with C3b_(R161W) (human) [3], 570 nM in the test with wild-type C3b (human) [4] and 710 nM with C3b_(R592W) (human) [5].

B1: soluble recombinant membrane cofactor protein (sMCP) (domain or fragment)
chain: CEEPPTFEAMELIGKPKPYYEIGERVDYKCKKGYFYIPPLATHTICDRNHTWLPVSDDACYRETCPYIRDPLNGQAVPANGTYEFGYQMHFICNEGYYLIGEEILYCELKGSVAIWSGKPPICEKVLCTPPPKIKNGKHTFSEVEVFEYLDAVTYSCDPAPGPDPFSLIGESTIYCGDNSVWSRAAPECKVVKCRFPVVENGKQISGFGKKFYYKATVMFECDKGFYLDGSDTIVCDSNSTWDPPVPKCLKV
notes: membrane cofactor protein (MCP, CD46), the first four short consensus repeats (SCR1-4); also called CD46; recombinant soluble MCP; source: recombinant; gift from Prof; Susan Lea, Oxford University
For the molecule B1, in the test with C3b_(I1157T) [6], the Kd came out at 940 nM. This lies in the sub-micromolar range.

B2: factor H (natural protein, human, UniProt P08603 19-1231, looked up)
chain: EDCNELPPRRNTEILTGSWSDQTYPEGTQAIYKCRPGYRSLGNVIMVCRKGEWVALNPLRKCQKRPCGHPGDTPFGTFTLTGGNVFEYGVKAVYTCNEGYQLLGEINYRECDTDGWTNDIPICEVVKCLPVTAPENGKIVSSAMEPDREYHFGQAVRFVCNSGYKIEGDEEMHCSDDGFWSKEKPKCVEISCKSPDVINGSPISQKIIYKENERFQYKCNMGYEYSERGDAVCTESGWRPLPSCEEKSCDNPYIPNGDYSPLRIKHRTGDEITYQCRNGFYPATRGNTAKCTSTGWIPAPRCTLKPCDYPDIKHGGLYHENMRRPYFPVAVGKYYSYYCDEHFETPSGSYWDHIHCTQDGWSPAVPCLRKCYFPYLENGYNQNYGRKFVQGKSIDVACHPGYALPKAQTTVTCMENGWSPTPRCIRVKTCSKSSIDIENGFISESQYTYALKEKAKYQCKLGYVTADGETSGSITCGKDGWSAQPTCIKSCDIPVFMNARTKNDFTWFKLNDTLDYECHDGYESNTGSTTGSIVCGYNGWSDLPICYERECELPKIDVHLVPDRKKDQYKVGEVLKFSCKPGFTIVGPNSVQCYHFGLSPDLPICKEQVQSCGPPPELLNGNVKEKTKEEYGHSEVVEYYCNPRFLMKGPNKIQCVDGEWTTLPVCIVEESTCGDIPELEHGWAQLSSPPYYYGDSVEFNCSESFTMIGHRSITCIHGVWTQLPQCVAIDKLKKCKSSNLIILEEHLKNKKEFDHNSNIRYRCRGKEGWIHTVCINGRWDPEVNCSMAQIQLCPPPPQIPNSHNMTTTLNYRDGEKVSVLCQENYLIQEGEEITCKDGRWQSIPLCVEKIPCSQPPQIEHGTINSSRSSQESYAHGTKLSYTCEGGFRISEENETTCYMGKWSSPPQCEGLPCKSPPEISHGVVAHMSDSYQYGEEVTYKCFEGFGIDGPAIAKCLGEKWSHPPSCIKTDCLSLPSFENAIPMGEKKDVYKAGEQVTYTCATYYKMDGASNVTCINSRWTGRPTCRDTSCVNPPTVQNAYIVSRQMSKYPSGERVRYQCRSPYEMFGDEEVMCLNGNWTEPPQCKDSTGKCGPPPPIDNGDITSFPLSVYAPASSVEYQCQNLYQLEGNKRITCRNGQWSEPPKCLHPCVISREIMENYNIALRWTAKQKLYSRTGESVEFVCKRGYRLSSRSHTLRTTCWDGKLEYPTCAKR
notes: complement factor H, human, from plasma; also called FH; CFH
Regarding B2, the Kd in the test with C3b_(R161W) (human) [7] turned out to be 2390 nM; with wild-type C3b (human) [8], 960 nM; in the test with C3b_(R592W) (human) [9], 2450 nM; with C3b_(I1157T) [10] it was 1420 nM.

These data come from paper PMC4503813, “The molecular and structural bases for the association of complement C3 mutations with atypical hemolytic uremic syndrome” (Molecular Immunology, 2015).
